From patent US20180155451A1 (published 2018) come the findings set out here.

T1: FcγRIIa R (human, UniProt P12318 34-217)
T1 construct: extracellular domain; Soluble extracellular domain with C-terminal His tag, expressed in FreeStyle293 cells; also called FcgRIIa R; FcγRIIa type R; not shown: His tag attached to the C terminus
T1 sequence (looked up): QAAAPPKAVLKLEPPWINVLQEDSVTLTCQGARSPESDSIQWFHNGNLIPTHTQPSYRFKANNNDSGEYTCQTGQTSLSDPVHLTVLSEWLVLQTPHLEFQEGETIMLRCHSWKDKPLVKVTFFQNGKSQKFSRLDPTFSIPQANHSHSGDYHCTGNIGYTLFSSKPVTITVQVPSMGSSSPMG

B1: GpH7-B3 variant K326_10E/GpL16-k0 (antibody, human IgG1, kappa)
heavy: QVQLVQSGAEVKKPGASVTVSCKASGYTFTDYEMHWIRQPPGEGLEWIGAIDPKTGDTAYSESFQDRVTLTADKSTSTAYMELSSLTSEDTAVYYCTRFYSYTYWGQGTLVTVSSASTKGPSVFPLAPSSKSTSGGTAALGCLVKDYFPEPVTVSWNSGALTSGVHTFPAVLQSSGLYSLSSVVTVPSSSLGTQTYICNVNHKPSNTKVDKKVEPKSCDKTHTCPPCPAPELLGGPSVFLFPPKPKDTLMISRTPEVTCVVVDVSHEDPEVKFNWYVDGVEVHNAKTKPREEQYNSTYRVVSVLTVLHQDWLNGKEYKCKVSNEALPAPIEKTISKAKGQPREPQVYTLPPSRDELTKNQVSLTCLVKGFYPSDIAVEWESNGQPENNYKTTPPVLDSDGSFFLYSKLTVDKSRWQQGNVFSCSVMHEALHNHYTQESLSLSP
light: DIVMTQSPLSLPVTPGEPASISCQASESLVHSNRNTYLHWYLQKPGQSPQLLIYKVSNRFSGVPDRFSGSGSGTDFTLKISRVEAEDVGVYYCSQNTHVPPTFGQGTKVEIERTVAAPSVFIFPPSDEQLKSGTASVVCLLNNFYPREAKVQWKVDNALQSGNSQESVTEQDSKDSTYSLSSTLTLSKADYEKHKVYACEVTHQGLSSPVTKSFNRGEC
notes: homodimerized; mutation in both H chains; also called Ho Ab
B2: GpH7-B3 variant T335_08L/GpL16-k0 (antibody, human IgG1, kappa)
heavy: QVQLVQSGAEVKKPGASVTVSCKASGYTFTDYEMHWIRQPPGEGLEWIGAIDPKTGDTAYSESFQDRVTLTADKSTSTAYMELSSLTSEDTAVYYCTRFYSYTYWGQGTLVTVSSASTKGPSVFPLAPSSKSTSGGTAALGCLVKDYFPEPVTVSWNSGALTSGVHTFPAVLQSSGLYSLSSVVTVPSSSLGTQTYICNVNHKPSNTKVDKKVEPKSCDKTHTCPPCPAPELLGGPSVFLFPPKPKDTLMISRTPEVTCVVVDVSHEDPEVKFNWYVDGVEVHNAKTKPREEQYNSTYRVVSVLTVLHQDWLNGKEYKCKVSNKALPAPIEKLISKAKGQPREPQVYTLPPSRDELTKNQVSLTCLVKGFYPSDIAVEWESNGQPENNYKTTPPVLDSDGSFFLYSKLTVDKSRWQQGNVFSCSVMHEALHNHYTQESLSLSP
light: B1 light
notes: as for B1
B3: GpH7-B3 variant T335_18N/GpL16-k0 (antibody, human IgG1, kappa)
heavy: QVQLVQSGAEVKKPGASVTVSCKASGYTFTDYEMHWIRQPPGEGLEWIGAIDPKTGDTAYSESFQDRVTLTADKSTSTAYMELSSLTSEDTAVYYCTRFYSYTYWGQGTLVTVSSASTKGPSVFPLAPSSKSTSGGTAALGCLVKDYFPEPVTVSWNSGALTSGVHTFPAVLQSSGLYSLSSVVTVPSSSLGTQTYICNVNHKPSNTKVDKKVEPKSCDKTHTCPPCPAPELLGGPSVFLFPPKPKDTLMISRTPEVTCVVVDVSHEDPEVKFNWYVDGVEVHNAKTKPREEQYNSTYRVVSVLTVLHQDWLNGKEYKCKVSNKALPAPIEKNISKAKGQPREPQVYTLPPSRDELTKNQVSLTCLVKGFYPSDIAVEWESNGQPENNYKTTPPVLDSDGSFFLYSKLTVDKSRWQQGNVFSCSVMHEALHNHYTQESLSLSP
light: B1 light
notes: as for B1
B4: GpH7-B3 variant L328_15Y/GpL16-k0 (antibody, human IgG1, kappa)
heavy: not shown
light: B1 light
notes: as for B1
B5: GpH7-B3 variant L328_03V/GpL16-k0 (antibody, human IgG1, kappa)
heavy: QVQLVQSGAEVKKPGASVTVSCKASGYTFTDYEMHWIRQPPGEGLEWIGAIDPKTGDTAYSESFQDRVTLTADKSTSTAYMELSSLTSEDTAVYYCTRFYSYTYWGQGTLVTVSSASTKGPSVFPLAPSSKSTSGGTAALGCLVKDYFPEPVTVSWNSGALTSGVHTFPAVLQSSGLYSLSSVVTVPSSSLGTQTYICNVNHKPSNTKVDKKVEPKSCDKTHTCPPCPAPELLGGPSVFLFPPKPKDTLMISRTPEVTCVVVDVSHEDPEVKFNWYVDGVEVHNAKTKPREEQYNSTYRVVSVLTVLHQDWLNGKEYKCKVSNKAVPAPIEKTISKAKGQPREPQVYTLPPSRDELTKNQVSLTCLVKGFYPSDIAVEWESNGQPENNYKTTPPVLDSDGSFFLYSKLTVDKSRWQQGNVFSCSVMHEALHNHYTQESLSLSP
light: B1 light
notes: as for B1
B6: GpH7-B3 variant K334_07I/GpL16-k0 (antibody, human IgG1, kappa)
heavy: not shown
light: B1 light
notes: as for B1
B7: GpH7-B3 variant K334_16H/GpL16-k0 (antibody, human IgG1, kappa)
heavy: not shown
light: B1 light
notes: as for B1
B8: GpH7-B3 variant Y300_04F/GpL16-k0 (antibody, human IgG1, kappa)
heavy: not shown
light: B1 light
notes: as for B1
B9: GpH7-B3 variant T335_09D/GpL16-k0 (antibody, human IgG1, kappa)
heavy: not shown
light: B1 light
notes: as for B1
B10: GpH7-B3 variant P238_08L/GpL16-k0 (antibody, human IgG1, kappa)
heavy: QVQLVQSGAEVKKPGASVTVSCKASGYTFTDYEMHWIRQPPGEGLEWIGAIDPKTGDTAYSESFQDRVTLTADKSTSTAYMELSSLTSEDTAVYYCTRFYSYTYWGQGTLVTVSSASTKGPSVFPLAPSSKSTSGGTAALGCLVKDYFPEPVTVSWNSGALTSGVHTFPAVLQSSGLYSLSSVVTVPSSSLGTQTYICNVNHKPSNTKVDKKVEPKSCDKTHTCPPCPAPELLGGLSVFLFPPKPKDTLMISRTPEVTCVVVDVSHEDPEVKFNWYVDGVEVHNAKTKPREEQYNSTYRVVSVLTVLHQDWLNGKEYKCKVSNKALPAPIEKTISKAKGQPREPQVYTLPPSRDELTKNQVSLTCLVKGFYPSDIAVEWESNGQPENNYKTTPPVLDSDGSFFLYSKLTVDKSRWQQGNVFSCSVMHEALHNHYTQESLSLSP
light: B1 light
notes: as for B1
B11: GpH7-B3 variant S267_01G/GpL16-k0 (antibody, human IgG1, kappa)
heavy: not shown
light: B1 light
notes: as for B1
B12: GpH7-B3 variant T335_06M/GpL16-k0 (antibody, human IgG1, kappa)
heavy: not shown
light: B1 light
notes: as for B1
B13: GpH7-B3 variant Y296_20W/GpL16-k0 (antibody, human IgG1, kappa)
heavy: not shown
light: B1 light
notes: as for B1
B14: GpH7-B3 variant K334_15Y/GpL16-k0 (antibody, human IgG1, kappa)
heavy: not shown
light: B1 light
notes: as for B1
B15: GpH7-B3 variant K334_18N/GpL16-k0 (antibody, human IgG1, kappa)
heavy: not shown
light: B1 light
notes: as for B1
B16: GpH7-B3 variant T335_16H/GpL16-k0 (antibody, human IgG1, kappa)
heavy: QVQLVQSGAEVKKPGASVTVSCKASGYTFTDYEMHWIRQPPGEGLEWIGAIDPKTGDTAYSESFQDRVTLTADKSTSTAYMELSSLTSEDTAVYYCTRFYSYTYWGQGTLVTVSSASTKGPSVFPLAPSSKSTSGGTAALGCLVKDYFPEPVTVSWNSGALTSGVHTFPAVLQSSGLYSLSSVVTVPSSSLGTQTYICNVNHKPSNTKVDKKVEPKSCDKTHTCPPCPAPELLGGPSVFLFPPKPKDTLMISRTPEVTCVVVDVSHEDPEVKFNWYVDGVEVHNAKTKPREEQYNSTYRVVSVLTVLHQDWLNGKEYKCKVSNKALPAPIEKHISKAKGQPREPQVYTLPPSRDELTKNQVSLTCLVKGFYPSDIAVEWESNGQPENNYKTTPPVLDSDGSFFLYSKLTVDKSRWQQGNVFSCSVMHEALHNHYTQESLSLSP
light: B1 light
notes: as for B1
B17: GpH7-B3 variant S267_02A/GpL16-k0 (antibody, human IgG1, kappa)
heavy: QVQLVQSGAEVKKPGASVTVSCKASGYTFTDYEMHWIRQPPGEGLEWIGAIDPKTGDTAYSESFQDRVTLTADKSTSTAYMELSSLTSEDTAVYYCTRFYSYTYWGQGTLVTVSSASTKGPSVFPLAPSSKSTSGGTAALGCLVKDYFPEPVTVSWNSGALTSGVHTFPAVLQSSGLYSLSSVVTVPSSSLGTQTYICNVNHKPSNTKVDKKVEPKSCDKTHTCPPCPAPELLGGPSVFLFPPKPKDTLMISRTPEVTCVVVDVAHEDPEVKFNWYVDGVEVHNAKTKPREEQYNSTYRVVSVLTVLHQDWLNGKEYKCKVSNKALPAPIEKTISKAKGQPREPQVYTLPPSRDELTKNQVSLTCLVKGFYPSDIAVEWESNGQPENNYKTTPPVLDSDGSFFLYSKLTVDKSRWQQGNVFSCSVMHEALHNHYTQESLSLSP
light: B1 light
notes: as for B1
B18: GpH7-B3 variant K334_14T/GpL16-k0 (antibody, human IgG1, kappa)
heavy: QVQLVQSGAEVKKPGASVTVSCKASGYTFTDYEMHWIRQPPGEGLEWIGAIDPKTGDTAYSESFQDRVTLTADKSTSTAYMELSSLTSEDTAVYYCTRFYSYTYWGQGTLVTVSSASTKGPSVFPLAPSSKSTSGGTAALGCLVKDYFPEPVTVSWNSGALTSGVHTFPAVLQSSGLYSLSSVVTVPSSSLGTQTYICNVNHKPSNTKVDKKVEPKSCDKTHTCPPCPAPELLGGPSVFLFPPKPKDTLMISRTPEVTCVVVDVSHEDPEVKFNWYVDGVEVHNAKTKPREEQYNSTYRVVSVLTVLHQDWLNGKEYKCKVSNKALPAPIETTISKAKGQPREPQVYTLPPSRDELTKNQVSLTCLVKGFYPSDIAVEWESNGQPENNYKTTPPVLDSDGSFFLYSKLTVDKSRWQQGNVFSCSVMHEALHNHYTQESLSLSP
light: B1 light
notes: as for B1
B19: GpH7-B3 variant L328_06M/GpL16-k0 (antibody, human IgG1, kappa)
heavy: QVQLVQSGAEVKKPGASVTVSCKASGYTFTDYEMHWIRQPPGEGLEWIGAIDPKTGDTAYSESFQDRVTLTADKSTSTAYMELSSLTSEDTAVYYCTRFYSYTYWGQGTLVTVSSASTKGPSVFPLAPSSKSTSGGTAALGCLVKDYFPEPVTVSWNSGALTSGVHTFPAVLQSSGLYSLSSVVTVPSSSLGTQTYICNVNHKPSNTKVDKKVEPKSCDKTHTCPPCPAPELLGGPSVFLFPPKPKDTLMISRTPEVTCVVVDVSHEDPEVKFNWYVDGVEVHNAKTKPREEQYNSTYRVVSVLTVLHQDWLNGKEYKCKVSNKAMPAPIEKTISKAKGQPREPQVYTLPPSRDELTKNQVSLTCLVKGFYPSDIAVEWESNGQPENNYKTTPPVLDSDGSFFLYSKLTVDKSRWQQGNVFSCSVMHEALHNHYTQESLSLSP
light: B1 light
notes: as for B1
B20: GpH7-B3 variant S267_07I/GpL16-k0 (antibody, human IgG1, kappa)
heavy: not shown
light: B1 light
notes: as for B1
B21: GpH7-B3 variant T335_04F/GpL16-k0 (antibody, human IgG1, kappa)
heavy: not shown
light: B1 light
notes: as for B1
B22: GpH7-B3 variant T335_19Q/GpL16-k0 (antibody, human IgG1, kappa)
heavy: not shown
light: B1 light
notes: as for B1
B23: GpH7-B3 variant V266_06M/GpL16-k0 (antibody, human IgG1, kappa)
heavy: not shown
light: B1 light
notes: as for B1
B24: GpH7-B3 variant K326_16H/GpL16-k0 (antibody, human IgG1, kappa)
heavy: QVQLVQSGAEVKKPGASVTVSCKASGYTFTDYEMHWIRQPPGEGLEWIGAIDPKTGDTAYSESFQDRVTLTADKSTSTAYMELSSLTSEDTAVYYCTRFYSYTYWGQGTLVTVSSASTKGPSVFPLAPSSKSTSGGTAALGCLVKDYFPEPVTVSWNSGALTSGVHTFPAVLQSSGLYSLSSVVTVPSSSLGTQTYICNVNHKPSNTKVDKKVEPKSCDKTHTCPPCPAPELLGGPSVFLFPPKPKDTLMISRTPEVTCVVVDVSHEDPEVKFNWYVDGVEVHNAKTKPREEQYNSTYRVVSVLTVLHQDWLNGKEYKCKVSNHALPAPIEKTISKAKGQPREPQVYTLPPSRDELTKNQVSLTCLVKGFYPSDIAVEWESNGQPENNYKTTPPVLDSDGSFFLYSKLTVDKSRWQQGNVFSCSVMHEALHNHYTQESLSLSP
light: B1 light
notes: as for B1
B25: GpH7-B3 variant S239_09D/GpL16-k0 (antibody, human IgG1, kappa)
heavy: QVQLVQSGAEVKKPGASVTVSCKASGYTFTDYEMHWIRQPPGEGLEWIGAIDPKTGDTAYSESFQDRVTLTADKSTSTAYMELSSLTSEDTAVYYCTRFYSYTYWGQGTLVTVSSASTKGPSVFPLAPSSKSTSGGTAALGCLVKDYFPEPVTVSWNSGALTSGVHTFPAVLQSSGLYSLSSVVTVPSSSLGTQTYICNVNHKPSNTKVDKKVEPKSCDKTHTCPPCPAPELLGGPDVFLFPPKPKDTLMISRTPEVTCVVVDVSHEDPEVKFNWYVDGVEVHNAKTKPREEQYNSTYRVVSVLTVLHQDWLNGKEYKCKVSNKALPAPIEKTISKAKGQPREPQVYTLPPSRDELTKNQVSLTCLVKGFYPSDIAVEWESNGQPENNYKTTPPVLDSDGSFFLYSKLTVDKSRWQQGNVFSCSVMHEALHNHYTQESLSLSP
light: B1 light
notes: homodimerized; mutation in both H chains; also called Ho Ab; GpH7-B3-06-09D/GpL16-k0

For the assay, the target named is T1, FcγRIIa R. The assay can be described thus: SPR (Biacore), antibody captured via antigen peptide, FcγRIIa R as analyte; homodimerized antibody. The method, then:
Analysis of interaction between objective antibody and the FcγR was carried out using Biacore T100 (GE Healthcare). HBS-EP+ (GE Healthcare) was used as the running buffer, and the measurement temperature was set to 25° C. Chips produced by immobilizing the antigen peptide by the amine coupling method to a Series S Sencor Chip CM5 (GE Healthcare), or alternatively, chips produced by allowing preliminarily biotinylated antigen peptides to interact with and immobilize onto a Series S Sensor Chip SA (certified) (GE Healthcare) were used. Antibodies of interest were captured onto an antigen peptide-immobilized chip, and allowed to interact to each FcγR diluted with running buffer. To regenerate and repeatedly use the chip, the antibodies captured on the chip were washed off by reacting 10 mM glycine-HCl, pH 1.5.
In general terms: Surface plasmon resonance follows binding to a sensor surface in real time, without labels.
Turning to B1, the Ho/Con_2aR is 156 % of control (GpH7-B3/GpL16-k0 = 100).

Turning to B2, the Ho/Con_2aR is 108 % of control (GpH7-B3/GpL16-k0 = 100).

On to B3, for which the Ho/Con_2aR was 100 % of control (GpH7-B3/GpL16-k0 = 100).

For the molecule B4, the Ho/Con_2aR is 157 % of control (GpH7-B3/GpL16-k0 = 100).

Consider B5, for which the Ho/Con_2aR is 116 % of control (GpH7-B3/GpL16-k0 = 100).

For B6, the Ho/Con_2aR is 121 % of control (GpH7-B3/GpL16-k0 = 100).

For the molecule B7, the Ho/Con_2aR is 111 % of control (GpH7-B3/GpL16-k0 = 100).

On to B8, for which the Ho/Con_2aR was 109 % of control (GpH7-B3/GpL16-k0 = 100).

Take B9: the Ho/Con_2aR was 113 % of control (GpH7-B3/GpL16-k0 = 100).

With B10, the Ho/Con_2aR is 148 % of control (GpH7-B3/GpL16-k0 = 100).

As for B11, the Ho/Con_2aR is 116 % of control (GpH7-B3/GpL16-k0 = 100).

With B12, the Ho/Con_2aR was 107 % of control (GpH7-B3/GpL16-k0 = 100).

With B13, the Ho/Con_2aR was 107 % of control (GpH7-B3/GpL16-k0 = 100).

B14: the Ho/Con_2aR is 112 % of control (GpH7-B3/GpL16-k0 = 100).

For B15, the Ho/Con_2aR was 113 % of control (GpH7-B3/GpL16-k0 = 100).

For the molecule B16, the Ho/Con_2aR is 102 % of control (GpH7-B3/GpL16-k0 = 100).

In the case of B17, the Ho/Con_2aR was 160 % of control (GpH7-B3/GpL16-k0 = 100).

Turning to B18, the Ho/Con_2aR was 117 % of control (GpH7-B3/GpL16-k0 = 100).

On to B19, for which the Ho/Con_2aR is 124 % of control (GpH7-B3/GpL16-k0 = 100).

For B20, the Ho/Con_2aR was 113 % of control (GpH7-B3/GpL16-k0 = 100).

As for B21, the Ho/Con_2aR is 108 % of control (GpH7-B3/GpL16-k0 = 100).

With B22, the Ho/Con_2aR was 102 % of control (GpH7-B3/GpL16-k0 = 100).

In the case of B23, the Ho/Con_2aR was 146 % of control (GpH7-B3/GpL16-k0 = 100).

For B24, the Ho/Con_2aR was 123 % of control (GpH7-B3/GpL16-k0 = 100).

On to B25, for which the Ho/Con_2aR was 142 % of control (GpH7-B3/GpL16-k0 = 100).
